# Square brackets hold non-standard residues; d marks the D form. Primed or numbered codes have the meaning given here. Ends that are not written are not given here. FITC′ = fluorescein isothiocyanate (ϕ)
# B1: ACI-82-Kϕ (peptide)
# peptide: [dS][dH][dY][dR][dH][dI][dS][dP][dA][dQ][dV][dK](FITC′)
# notes: D-enantiomeric derivative of ACI-80 (D1): N-terminal glutamine deleted (Q1X), added C-terminal lysine; also called D1-Q1X-Kϕ; source: synthetic peptide (JPT Peptide Technologies GmbH, Berlin)
# B2: [^19F]-ACI-88-Kϕ (peptide)
# peptide: [dS][dH][dY][dR][dH][dI][dS][dP][dA][dQ][dK][dK](FITC′)
# modifications: also: [19F]-4-fluorobenzoyl label, place not given here
# notes: D-enantiomeric derivative of ACI-80 (D1): N-terminal glutamine deleted (Q1X), V12K, added C-terminal lysine, fluorinated; also called D1-Q1X-V12K-K[^19F]ϕ; source: synthetic peptide, reacted with [^19F]-N-succinimidyl-4-fluorobenzoate (SFB), HPLC purified
# B3: ACI-85-Kϕ (peptide)
# peptide: [dS][dF][dY][dR][dH][dI][dS][dP][dA][dQ][dV][dK](FITC′)
# notes: D-enantiomeric derivative of ACI-80 (D1): N-terminal glutamine deleted (Q1X), H3F, added C-terminal lysine; also called D1-Q1X-H3F-Kϕ; source: synthetic peptide (JPT Peptide Technologies GmbH, Berlin)
# B4: ACI-88-Kϕ (peptide)
# peptide: [dS][dH][dY][dR][dH][dI][dS][dP][dA][dQ][dK][dK](FITC′)
# notes: D-enantiomeric derivative of ACI-80 (D1): N-terminal glutamine deleted (Q1X), V12K, added C-terminal lysine; also called D1-Q1X-V12K-Kϕ; source: synthetic peptide (JPT Peptide Technologies GmbH, Berlin)
# B5: [^19F]-ACI-89-Kϕ (peptide)
# peptide: [dP][dS][dH][dY][dR][dH][dI][dS][dP][dA][dQ][dK][dK](FITC′)
# modifications: also: [19F]-4-fluorobenzoyl label, place not given here
# notes: D-enantiomeric derivative of ACI-80 (D1): Q1P, V12K, added C-terminal lysine, fluorinated; also called D1-Q1P-V12K-K[^19F]ϕ; source: synthetic peptide, reacted with [^19F]-N-succinimidyl-4-fluorobenzoate (SFB), HPLC purified
# B6: ACI-89-Kϕ (peptide)
# peptide: [dP][dS][dH][dY][dR][dH][dI][dS][dP][dA][dQ][dK][dK](FITC′)
# notes: D-enantiomeric derivative of ACI-80 (D1): Q1P, V12K, added C-terminal lysine; also called D1-Q1P-V12K-Kϕ; source: synthetic peptide (JPT Peptide Technologies GmbH, Berlin)
# B7: ACI-86-Kϕ (peptide)
# peptide: [dP][dS][dF][dY][dR][dH][dI][dS][dP][dA][dQ][dV][dK](FITC′)
# notes: D-enantiomeric derivative of ACI-80 (D1): Q1P, H3F, added C-terminal lysine; also called D1-Q1P-H3F-Kϕ; source: synthetic peptide (JPT Peptide Technologies GmbH, Berlin)
# B8: ACI-87-Kϕ (peptide)
# peptide: [dQ][dS][dH][dY][dR][dH][dI][dS][dP][dA][dQ][dK][dK](FITC′)
# notes: D-enantiomeric derivative of ACI-80 (D1): V12K, added C-terminal lysine; also called D1-V12K-Kϕ; source: synthetic peptide (JPT Peptide Technologies GmbH, Berlin)
# B9: ACI-83-Kϕ (peptide)
# peptide: [dP][dS][dH][dY][dR][dH][dI][dS][dP][dA][dQ][dV][dK](FITC′)
# notes: D-enantiomeric derivative of ACI-80 (D1): Q1P, added C-terminal lysine; also called D1-Q1P-Kϕ; source: synthetic peptide (JPT Peptide Technologies GmbH, Berlin)
# B10: [^19F]-ACI-87-Kϕ (peptide)
# peptide: [dQ][dS][dH][dY][dR][dH][dI][dS][dP][dA][dQ][dK][dK](FITC′)
# modifications: also: [19F]-4-fluorobenzoyl label, place not given here
# notes: D-enantiomeric derivative of ACI-80 (D1): V12K, added C-terminal lysine, fluorinated; The text says V12K was made to enable fluorination; also called D1-V12K-K[^19F]ϕ; source: synthetic peptide, reacted with [^19F]-N-succinimidyl-4-fluorobenzoate (SFB), HPLC purified
# B11: ACI-80-Kϕ (peptide)
# peptide: [dQ][dS][dH][dY][dR][dH][dI][dS][dP][dA][dQ][dV][dK](FITC′)
# notes: D-enantiomeric peptide ACI-80 (D1), selected by mirror image phage display on aggregated Aβ1–42, with an added C-terminal lysine; also called D1-Kϕ; source: synthetic peptide (JPT Peptide Technologies GmbH, Berlin)
# Tests used:
# Settings in all cases: both partners purified
# Aβ1–42 fibrils [1] = target: T1, Aβ1–42 fibrils (UniProt P05067 672-713); assay: ELISA; Aβ1–42 fibrils coated on the plate (10 µg/ml, bicarbonate-carbonate buffer pH 9.6); D-compounds from 10 µg/ml, 2 h at 37°C; detected by anti-fluorescein isothiocyanate-AP, pNPP 2.5 h
# T1 construct: amyloid-β peptide Aβ1–42, cut from the amyloid precursor protein (APP), in fibrillar form; Aggregated (fibrillar) state of the same peptide as m15; also called fibrillar Aß1–42; Aβ fibrils; source: bought: JPT Biotech or Bachem AG (HPLC purified peptide); fibrils formed at 37°C (7 days in PBS pH 7.4 for SPR; five days in 50 mM Tris-HCl pH 7.4 for ELISA)
# T1 sequence (P05067 672-713): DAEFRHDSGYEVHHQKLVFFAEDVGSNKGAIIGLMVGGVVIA
# Aβ1–42 fibrils [2] = target: T1, Aβ1–42 fibrils; assay: SPR; Biacore 1000; Aβ1–42 fibrils (6800 RU) immobilised on a CM5 chip by amine coupling; PBS pH 7.4; analytes 50 µg/ml, 5 µl/min for 2 minutes, ambient temperature; semi-quantitative: response in % of ACI-80-Kϕ
# [3] = target: T2, Aβ1–42 peptide film (mostly monomeric Aβ1–42) (UniProt P05067 672-713); assay: ELISA; Aβ1–42 peptide film (mostly monomers) coated on the plate (10 µg/ml, bicarbonate-carbonate buffer pH 9.6); D-compounds from 10 µg/ml, 2 h at 37°C; detected by anti-fluorescein isothiocyanate-AP, pNPP 2.5 h
# T2 construct: amyloid-β peptide Aβ1–42, cut from the amyloid precursor protein (APP), freshly dissolved peptide film containing mostly monomers and smaller oligomers; Same peptide as m14, not fibrillised; also called Aβ1–42 monomers; Aβ peptide film; source: bought: Bachem (lyophilized powder); HFIP film, reconstituted with 0.54% DMSO in PBS
# T2 sequence (P05067 672-713): as above
# Aβ1–42 fibrils [4] = target: T1, Aβ1–42 fibrils; assay: SPR; Biacore T100, single-cycle mode, 25°C; Aβ1–42 fibrils immobilised on a CM5 chip by amine coupling; PBS pH 7.4, 30 µl/min; 100 to 62500 nM in fivefold steps, 60 s each; heterogeneous ligand model
Binder,% binding relative to ACI-80-Kϕ (Aβ1–42 fibrils [1]) [%],"binding value (ELISA, 10 ug/mL compound) (Aβ1–42 fibrils [1])","Dissociation [%] (response 60 s after end of injection, relative to ACI-80-Kϕ) (Aβ1–42 fibrils [2])","Interaction [%] (maximal response during injection, relative to ACI-80-Kϕ) (Aβ1–42 fibrils [2])",% binding relative to ACI-80-Kϕ [3] [%],"binding value (ELISA, 10 ug/mL compound) [3]","K D1 (heterogeneous ligand model, site 1) (Aβ1–42 fibrils [4])","K D2 (heterogeneous ligand model, site 2) (Aβ1–42 fibrils [4])","k off1 (heterogeneous ligand model, site 1) (Aβ1–42 fibrils [4])","k off2 (heterogeneous ligand model, site 2) (Aβ1–42 fibrils [4])","k on1 (heterogeneous ligand model, site 1) (Aβ1–42 fibrils [4])","k on2 (heterogeneous ligand model, site 2) (Aβ1–42 fibrils [4])"
B1,142,1.28,300,393,167,0.82,–,–,–,–,–,–
B2,196,1.76,1230,294,214,1.05,–,–,–,–,–,–
B3,111,1,40,229,129,0.63,–,–,–,–,–,–
B4,198,1.78,667,365,263,1.29,4.22e-07,5.95e-05,0.00722,0.0553,17100,930
B5,207,1.86,0,476,243,1.19,–,–,–,–,–,–
B6,165,1.49,533,518,216,1.06,8e-06,3.53e-06,0.162,0.0118,20300,3340
B7,138,1.24,40,21,163,0.8,–,–,–,–,–,–
B8,103,0.93,443,324,122,0.79,8.93e-06,2.59e-05,0.00184,0.0407,206,1570
B9,167,1.5,200,600,214,1.05,–,–,–,–,–,–
B10,140,1.26,67,153,176,0.86,–,–,–,–,–,–
B11,100,0.9,–,–,100,0.49,5.38e-05,0.000115,0.0252,1.58,469,13700

# From article PMC3404088, “Development of a Small D-Enantiomeric Alzheimer’s Amyloid-β Binding Peptide Ligand for Future In Vivo Imaging Applications” (PLoS ONE, 2012)
